Measurements from patent publication US20250352659A1, “SELF-STABILIZING LINKER CONJUGATES” (priority 2023, published 2025).
Like-named read-outs stand apart in the source and are kept apart here.

Legend:
Type in all cases: physicochemical
[1] = Conjugator-antibody conjugate maleimide hydrolysis (ring opening) kinetics by reduced LCMS; details: for half-life: buffer; for RO Completed Time (>95%): time for the maleimide ring to open in more than 95% of the conjugators
Protocol: After the conjugation step, the ADC (or conjugator-antibody conjugate) was subjected to buffer exchange into ring opening buffer (pH 6.5˜9.0, PBS, borate or tris buffer) and the solution was left at 22 or 37° C. for 1˜48 h. The maleimide ring opening process was monitored via reduced LCMS. Once the conjugated maleimide hydrolysis was completed, the resulting ADCs were buffer exchanged into basic tris pH 8.0-8.5 buffer or acidic histidine-acetate pH 5.0-6.5 buffer via dialysis.
LCMS method to monitor and determine maleimide hydrolysis. LC-MS analysis was carried out under the following measurement conditions: • LC-MS system: Vanquish Flex UHPLC and Orbitrap Exploris 240 Mass Spectrometer • Column: MAbPac™ RP, 2.1*50 mm, 4 μm, 1,500 Å, Thermo Scientific™ • Column temperature: 80° C. • Mobile phase A: 0.1% formic acid (FA) aqueous solution • Mobile phase B: Acetonitrile solution containing 0.1% formic acid (FA) • Gradient program 1: 25% B-25% B (0 min-2 min), 25% B-50% B (2 min-18 min), 50% B-90% B (18 min-18.1 min), 90% B-90% B (18.1 min-20 min), 90% B-25% B (20 min-20.1 min), 25% B-25% B (20.1 min-25 min) • Gradient program 2 • Injected sample amount: 2 μg • MS parameters: Intact and denaturing MS data were acquired in HMR mode at setting of R=15k and deconvolved using the ReSpect™ algorithm and Sliding Window integration in Thermo Scientific™ BioPharma Finder™ 4.0 software.
Results for ring opening times measured by the LCMS method described above for monitoring ring hydrolysis are presented in Table 3 as RO T1/2 (h) (i.e., the time, in hours, for 50% of the maleimide rings to open).
Conjugator-antibody conjugate maleimide hydrolysis (ring opening) kinetics are presented in FIGS. 1A-1L, Table 3 (for pH 7.0 reaction conditions, hydrolysis T1/2), and Table 5. The data in Table 5 was generated by the LCMS method described above and includes the time, in hours, for the maleimide ring to open in more than 95% of the conjugators, after antibody conjugation (“RO Completed Time (>95%) (h)”). The results for conjugator-antibody conjugate 3-1 indicate that after 24 hours, about 0% of maleimide rings were open; the results for conjugator-antibody conjugate 3-3 indicate that after 24 hours, about 28% of maleimide rings were open.

[2] = Conjugator-antibody conjugate stability in formulation buffer (pH 5.5 20 mM histidine buffer); details: pH 5.5, 22 °C
Protocol: After the conjugation and hydrolysis steps described above (see “DAR8 antibody drug conjugate/conjugator-antibody conjugate preparation”), conjugator-antibody conjugates were incubated in formulation buffer (pH 5.5 20 mM histidine buffer) or glutathione (GSH) buffer (pH 7.4 or 8.0), […] Hydrolysis status was monitored via reduced LCMS. Results are presented in Table 6, Table 7, and FIGS. 2A-23B.

[3] = Conjugator-antibody conjugate stability in pH 7.4 and 8.0 buffer with and without GSH;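 note: conjugate hydrolysis tracked by LC-MS analysis of reduced samples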
[4] = pH 7.0, time for 50% of the maleimide rings to open, read-out: RO T1/2 (converted)

SMILES | MS DAR ([1]; pH 7, time point 1 h) | RO (%) LC ([1]; pH 7, time point 1 h) | MS DAR ([1]; pH 7, time point 3 h) | RO (%) HC ([1]; pH 7, time point 3 h) | RO (%) LC ([1]; pH 7, time point 3 h) | RO (%) Total ([1]; pH 7, time point 3 h) | MS DAR ([1]; pH 7, time point 5 h) | RO (%) HC ([1]; pH 7, time point 5 h) | RO (%) LC ([1]; pH 7, time point 5 h) | RO (%) Total ([1]; pH 7, time point 5 h) | MS DAR ([1]; pH 7, time point 7 h) | RO (%) HC ([1]; pH 7, time point 7 h) | RO (%) LC ([1]; pH 7, time point 7 h) | RO (%) Total ([1]; pH 7, time point 7 h) | MS DAR ([1]; pH 7, time point 24 h) | RO (%) HC ([1]; pH 7, time point 24 h) | RO (%) LC ([1]; pH 7, time point 24 h) | RO (%) Total ([1]; pH 7, time point 24 h) | RO Completed Time (>95%) ([1]; pH 7) | MS DAR-T = 0 h [2] | further results
CC(C)N(CCC(=O)N(C)C)C(=O)OCC(CN)N1C(=O)C=CC1=O (stereo not drawn) [3-9] | 7.94 | 40.06% | 7.94 | 99.84% | 79.93% | 94.86% | 7.96 | 99.07% | 89.36% | 96.64% | 7.96 | 100% | 93.56% | 98.39% | 7.96 | 100% | 99.17% | 99.79% | 5 h | 8.00 | half-life [1, 4]: 0.8 h; RO (%) HC ([1]; pH 7, time point 1 h): 66.09%; RO (%) Total ([1]; pH 7, time point 1 h): 59.58%; MS DAR-T = 168 h ([2]; incubation time printed 240 h): 8.00; Maleimide ring opening ratio (%) at T = 168 h ([2]; incubation time printed 240 h): 98.51%; MS DAR ([3]; incubation 20 h, pH 7.4, 22 °C): 8.00; MS DAR ([3]; incubation 20 h, pH 7.4, 37 °C): 8.00; MS DAR ([3]; incubation 20 h, pH 8.0, 22 °C): 8.00
CN(C)C(=O)CCNC(=O)OCCC(CN)N1C(=O)C=CC1=O (stereo not drawn) [3-13] | 8 | 21.50% | 8 | 92.96% | 64.20% | 85.77% | 8 | 100.00% | 74.30% | 93.58% | 8 | 99.68% | 93.68% | 98.18% | 8 | 100.00% | 94.99% | 98.75% | 7 h | 7.84 | half-life ([1]; pH 7): 1.7 h; RO (%) HC ([1]; pH 7, time point 1 h): 43.63%; RO (%) Total ([1]; pH 7, time point 1 h): 38.10%; MS DAR-T = 168 h ([2]; incubation 168 h): 7.88; Maleimide ring opening ratio (%) at T = 168 h ([2]; incubation 168 h): 98.33%; MS DAR ([3]; incubation 24 h, pH 7.4, 22 °C): 7.90; MS DAR ([3]; incubation 24 h, pH 7.4, 37 °C): 7.90; MS DAR ([3]; incubation 24 h, pH 8.0, 22 °C): 7.90
CN(C)C(=O)CCNC(=O)NCC(CN)N1C(=O)C=CC1=O (stereo not drawn) [3-12] | 8 | 27.31% | 8 | 89.82% | 74.84% | 86.08% | 8 | 95.33% | 78.30% | 91.07% | 8 | 99.07% | 88.53% | 96.44% | 8 | 99.64% | 95.87% | 98.70% | 7 h | 8.02 | half-life [1, 4]: 1.6 h; RO (%) HC ([1]; pH 7, time point 1 h): 45.46%; RO (%) Total ([1]; pH 7, time point 1 h): 40.92%; MS DAR-T = 168 h ([2]; incubation 168 h): 8.02; Maleimide ring opening ratio (%) at T = 168 h ([2]; incubation 168 h): 97.83%; MS DAR ([3]; incubation 24 h, pH 7.4, 22 °C): 8.00; MS DAR ([3]; incubation 24 h, pH 7.4, 37 °C): 8.00; MS DAR ([3]; incubation 24 h, pH 8.0, 22 °C): 8.00
CN(C)C(=O)CCCCC(CN)N1C(=O)C=CC1=O (stereo not drawn) [3-10] | 8 | 21.63% | 8 | 76.09% | 49.46% | 69.43% | 8 | 91.86% | 64.05% | 84.91% | 8 | 98.26% | 83.47% | 94.56% | 8 | 99.52% | 100% | 99.64% | 7 h | 8.00 | half-life [1, 4]: 2 h; RO (%) HC ([1]; pH 7, time point 1 h): 42.51%; RO (%) Total ([1]; pH 7, time point 1 h): 37.29%; MS DAR-T = 168 h ([2]; incubation 168 h): 8.00; Maleimide ring opening ratio (%) at T = 168 h ([2]; incubation 168 h): 98.38%; MS DAR ([3]; incubation 20 h, pH 7.4, 22 °C): 8.00; MS DAR ([3]; incubation 20 h, pH 7.4, 37 °C): 8.00; MS DAR ([3]; incubation 20 h, pH 8.0, 22 °C): 8.00
CN(C)C(=O)CCOCCC(CN)N1C(=O)C=CC1=O (stereo not drawn) [3-14] | 8 | 17.39% | 8 | 67.87% | 32.97% | 59.15% | 8 | 85.71% | 77.46% | 83.65% | 8 | 95.45% | 72.00% | 89.59% | 8 | 99.69% | 95.83% | 98.73% | 24 h | 8.00 | half-life [1, 4]: 2 h; RO (%) HC ([1]; pH 7, time point 1 h): 46.79%; RO (%) Total ([1]; pH 7, time point 1 h): 39.44%; MS DAR-T = 168 h ([2]; incubation 168 h): 8.00; Maleimide ring opening ratio (%) at T = 168 h ([2]; incubation 168 h): 97.15%; MS DAR ([3]; incubation 24 h, pH 7.4, 22 °C): 7.98; MS DAR ([3]; incubation 24 h, pH 7.4, 37 °C): 8.00; MS DAR ([3]; incubation 24 h, pH 8.0, 22 °C): 8.00
NCC(COC(=O)NCCOCCOCCOCCOCCC(=O)O)N1C(=O)C=CC1=O (stereo not drawn) [3-4] | 7.96 | 23.19% | 7.98 | 88.19% | 75.33% | 84.98% | 7.98 | 90.01% | 87.91% | 89.49% | 7.98 | 99.07% | 95.37% | 98.15% | 7.98 | 99.08% | 99.66% | 99.23% | 7 h | 8.00 | half-life [1, 4]: 1.6 h; RO (%) HC ([1]; pH 7, time point 1 h): 51.56%; RO (%) Total ([1]; pH 7, time point 1 h): 44.47%; MS DAR-T = 168 h ([2]; incubation 168 h): 8.00; Maleimide ring opening ratio (%) at T = 168 h ([2]; incubation 168 h): 98.86%; MS DAR ([3]; incubation 20 h, pH 7.4, 22 °C): 8.00; MS DAR ([3]; incubation 20 h, pH 7.4, 37 °C): 8.00; MS DAR ([3]; incubation 20 h, pH 8.0, 22 °C): 8.00
CN(C)C(=O)CN(C)C(=O)OCC(CN)N1C(=O)C=CC1=O (stereo not drawn) [3-8] | 7.74 | 44.94% | 7.88 | 96.11% | 80.15% | 92.12% | 7.78 | 99.49% | 92.96% | 97.85% | 7.8 | 99.47% | 94.42% | 98.21% | 7.8 | 99.55% | 95.48% | 98.53% | 5 h | 7.76 | half-life [1, 4]: 1.6 h; MS DAR-T = 168 h ([2]; incubation 168 h): 7.80; Maleimide ring opening ratio (%) at T = 168 h ([2]; incubation 168 h): 95.50%; MS DAR ([3]; incubation 20 h, pH 7.4, 22 °C): 7.92; MS DAR ([3]; incubation 20 h, pH 7.4, 37 °C): 7.92; MS DAR ([3]; incubation 20 h, pH 8.0, 22 °C): 7.88
CN(C)C(=O)CCOCC(N)CN1C(=O)C=CC1=O (stereo not drawn) [3-7] | 8.52 | 28.33% | 8 | 79.61% | 60.08% | 74.73% | 8 | 88.54% | 77.85% | 85.87% | 8 | 87.98% | 86.34% | 87.57% | 8 | 90.8% | 92.99% | 91.35% | >24 h | 8.00 | half-life ([1]; pH 7): 1.7 h; RO (%) HC ([1]; pH 7, time point 1 h): 40.83%; RO (%) Total ([1]; pH 7, time point 1 h): 37.71%; MS DAR-T = 168 h ([2]; incubation 168 h): 8.00; Maleimide ring opening ratio (%) at T = 168 h ([2]; incubation 168 h): 97.99%; MS DAR ([3]; incubation 20 h, pH 7.4, 22 °C): 8.00; MS DAR ([3]; incubation 20 h, pH 7.4, 37 °C): 8.00; MS DAR ([3]; incubation 20 h, pH 8.0, 22 °C): 8.00
